Experimental data taken from the DeepSol protein solubility set.

Assay: soluble on expression in E. coli; label from the status in PepcDB or PDB records

Sequence | soluble on expression in E. coli
MTSAWNEEWRRRRLPALAGQEWDLIVVGGGISGAGILREAARRGWRCLLLEQRDFAWGTSSRSSKMVHGGLRYIAKGQWRLTRDSVRERQRLLGEAPGLVEPLSFVMAHYRGGFPGPRLFGGLLSVYDALAGRRNHRFYDAAALRYLAPGLKEQRLLGGTRFFDAVTDDARLVLRVLAEARHDGGEAFNGMRVRELLREGGQVVGLRAEDRESGELFDFRCRALALATGAWADELRQPGGSEHIRPLRGSHLLLPAWRLPVAHAFSFMHATDRRPVFVFPWEGATVVGTTDLDHRDGLGEDARISRAELDYLLAACAQQFPAAAIEARDVLSTWAGVRPVVSSGDDSGKPSDEKREHVLWREPGCVTLAGGKLTTFRPLAVEVLQACAPLLGRTVTDDGAAVFGACEGPLIDGLGSGQRRRLAGRYGRDLVRLKRLVDTLGTDCVGASETLWAELAFAAEAEMVLHLDDLLLRRTRLGLLLPGGGAAYLPRIRALCQARLGWDDPRWEREQQAYLDLWRRHYSLPVLEHHHHHH | not soluble
MAKLYFYYSTMNAGKSTTLLQSSYNYRERDMNTLVYTAAIDDRFGVGKVTSRIGISQDAFLFRSETNLFDEINEHLKKEKVHCVLVDEAQFLSKQQVYQLSDVVDKLKIPVLCYGLRTDFQAELFEGSKYLLAWADQLEELKTICYCGRKANFVLRLNDQGEVIKEGAQIQIGGNDSYLSVCRLHYKEKCGQILEHHHHHH | soluble
MGHHHHHHSHMSHGHSHGGGGCRCAAEREEPPEQRGLAYGLYLRIDLERLQCLNESREGSGRGVFKPWEERTDRSKFVESDADEELLFNIPFTGNVKLKGIIIMGEDDDSHPSEMRLYKNIPQMSFDDTEREPDQTFSLNRDLTGELEYATKISRFSNVYHLSIHISKNFGADTTKVFYIGLRGEWTELRRHEVTICNYEASANPADHRVHQVTPQTHFIS | not soluble
MGATLTVAVAACTVSTPTSAIPVTHIKCLRINGQIKCVKPISPNTTPAAEHIEHVRKNPRRKAAMDRAAARIADKIALKAGGETFVSLRMKKGFTQSELATAAGLPQPYLSRIENSKQSLQDKTVQKLANALGVSPLEVRAAFERRYEYMEQA | soluble
MGRLGWVDPESFMQRNHELMDAYSAGKLAMEEFMAFSLEPMAGRTPEEVDHLVGPWVEDVIEPIIYSDACKCIAQHRAKGDRILVISASGVHLVKPIAERLGIDEVLGIELDVQHGVYSGATVGVLTYREGKITRLMEWLDAEGENLEGASFYSDSRNDLPLLLKVDHPNVVNPDPVLLEHAQQAGWPVHTWV | not soluble
MSLKEAEVLKYEAFTSSPGKGNPAGVVLQGDDYTEDEMQIIAERAGYSETSFIRKSESADLELRYFTPGHEMNLCGHATVASLYALCEKGMLESGKTYSIQTKAGILPVKISEKDGRIHITLEQASPQFKPFTGDRKKLADALGITDEDFHEDLPIVFGSTGIWTAIVPLKSLEASKKMVPDNKQFPEVLVDLPKASVHPFTFETVHPDSDLHGRHFSSPYSGTIEDPVTGTASGVMGAYMKHYGNAEQHKFIIEQGQEIGKDGKVEIEMNEAGGHVKVNMTGTAVYSETRILKIEGGSHHHHHH | soluble
KLAYKLGIGLECPFDKIWSLQTGVSFVSKGTNHTIVETDGISAQAKVNASYLEFPVMVAARFAMDRNTYILVAAGPYGAWGIGGKTKALGYSWSSSSTPDWNTGNVVEINTFGKDGLDLRRFDYGVAIGLSVEYRHYVIGVEGRLGLCKLQKELQGKNITGFVTAGYKF | not soluble
NRLLSKYDPQKEAELRTWIEGLTGLSIGPDFQKGLKDGTILCTLMNKLQPGSVPKINRSMQNWHQLENLSNFIKAMVSYGMNPVDLFEANDLFESGNMTQVQVSLLALAGKAKTKGLQSGVDIGVKYSEKQER | soluble
LITFRCRSYANVTMFGDIALEMIKMMGHSGTVPGSISAQDVPDALSKLTSALSAKNAAEENLPTDVDVDEKEEQVEPAVSLGRRAFPLIELLKSAIKEECEVMWD | not soluble
MSLNYRHAFHAGNFADLHKHAILLAMLSALQEKSPALAVIDTHAGAGGYDLAGEMARRSGEAQAGIFRLKAAADAPAVFQPLLNAITQMNGGKDGDLYPGSPRLMARALRGADRYVGCELRDDDADLLRKTLAPCANARALQADGFDTAVKDAGKGGRAFIVIDPPFERPDDYDRIVATTRAVLARAPDAALAIWLPIKDLETFDAFLRAMETVTSDLLVAELRLRPLTDPMKMNGCAMVMIGAPPSVEDAAVAAGDWIATRLGEPGGRSRVWRTEGHHHHHH | soluble
MGSDKIHHHHHHMENLGDRLEVVAELSLAPGNITLTPDGRLFLSLHQFYQPEMQVAELTQDGLIPFPPQSGNAIITFDTVLGIKSDGNGIVWMLDNGNQSKSVPKLVAWDTLNNQLSRVIYLPPPITLSNSFVNDLAVDLIHNFVYISDPAPDDKAALIRVDLQTGLAARVLQGYPGIAPEDIDLVIDGVPVQIGQPDGTVIRPHLGVNGIVLDAENEWLYLSPMHSTSMYRIKSADLSNLQLTDAELGSKIERYSEKPICDGISIDKDHNIYVGDLAHSAIGVITSADRAYKLLVTDEKLSWTDSFNFGSDGYLYFDCNQLHHSAPLNAGENISAPPYYIFRLKPLAAGIVGR | not soluble
MSILVYDREHNFKKWYIYWIPKTKMLGVKDDKDVVYEKMCTLQERTDILKVSKSLVEEKWSSLFSESGLHIEEVCEKELVLTFALQRNITLERTELSGRFDECLYLEYLRLKTLTNVSPMKRKRTASTVEHVIRSDDIKPILAPKSDPVKKRTTRMAAKASGPEFDDE | not soluble
MGYKTILAVVDNVSNTQKLGEFVVSLADQFSSHVIGLHMETLAAVPLVAPMEIPDPATVQALQDVAHKETTDVGTLFERTLSTNGISHEWRSFVTSVGYASASAIDSARCADLIVARQSSSSALSDSRSDIDGFLYESGRPVLLVPHVLTVAKPIKRVLIAWNGSREATRATFDALPFLKAADSVEIFSVDQSESETQSAGLAGAELAATLARHGVNVTVTSQEKIAGLSPQAAIENRLSDNSIDLLVMGAYGHSRWWELLFGGVTRTLLDSMTAMTLLSR | soluble
NKYFENVSKIKYEGPKSNNPYSFKFYNPEEVIDGKTMEEHLRFSIAYWHTFTADGTDQFGKATMQRPWNHYTDPMDIAKARVEAAFEFFDKINAPYFCFHDRDIAPEGDTLRETNKNLDTIVAMIKDYLKTSKTKVLWGTANLFSNPRFVHGASTSCNADVFAYSAAQVKKALEITKELGGENYVFWGGREGYETLLNTDMEFELDNFARFLHMAVDYAKEIGFEGQFLIEPKPKEPTKHQYDFDVANVLAFLRKYDLDKYFKVNIEANHATLAFHDFQHELRYARINGVLGSIDANTGDMLLGWDTDQFPTDIRMTTLAMYEVIKMGGFDKGGLNFDAKVRRASFEPEDLFLGHIAGMDAFAKGFKVAYKLVKDRVFDKFIEERYASYKDGIGADIVSGKADFRSLEKYALERSQIVNKSGRQELLESILNQYLFAE | soluble
AEAEFNNYCKIKCLKGGVHTACKYGSLKPNCGNKVVVSYGLTKQEKQDILKEHNDFRQKIARGLETRGNPGPQPPAKNMKNLVWNDELAYVAQVWANQCQYGHDTCRDVAKYQVGQNVALTGSTAAKYDDPVKLVKMWEDEVKDYNPKKKFSGNDFLKTGHYTQMVWANTKEVGCGSIKYIQEKWHKHYLVCNYGPSGNFKNEELYQTK | soluble
MRQSGSWMTIWDDRILEIIHEEGNGSPKELEDRDEIRISKSSVSRRLKKLADHDLLQPLANGVYVITEEGEAYLNGEYDAGKERYINRGNSTDEENGADAPDGPGINS | soluble
MAHHHHHHMAKDNKGKVKKAAGEETVKYYRVKGKKKILIPVKAKKTIAKKYYGRKLASKKKYIVQGKMRKSIEVGKVAIILSGKHMGKRCIITKVLTSGLLAVVGPYEVNGVPLKRVNPRYVVVTSTNIFKFENMAGLKDEFVKLAEQIEDNSFVKSLEIKKKQKKLLSKKNEGLFMNDVITKIKELMKEDPKMQQLQKIQKEIGTLLKDEIAKNKIFAEYLKSKFTLRNDMALHKMKF | not soluble
MSLLMKGTYCLIINCRGTERRIGSLGTVRFPPGFYVYVGSGFSSLEARIKRHLSSEKRRRWHIDHFLDGAEVECVLYTTDKRRLECAVSEKLHGEKSVRGFGCSDCSCKSHLHHFKNKNDATESVKRAFRELGAEVHEWGIEGHHHHHH | soluble
MGSDKIHHHHHHMNAPNSQKILFAITKKSQQDGRSFPTIIRVLKRIGSCAPQGVFQMLHWKPEYLRAFVSERSPQKLFDIAVHLAQDLDMDYLGLNIRIQIATQTPRLYLYSNYPSEWIERYQRDDFYKQDPAANLSHSSTMPVLWTDELYKEAPQFREMACLYGLRHGWTQSLHDQQHNESQISVARPNGPIDEVELYDKAGSVQWLCHTLHAVLGEHHLNALCPPQPKMSERELEVLKWSAAGKTAADVASILSLSQSTVNFHIRSVITKTNAANKAGAIAIAALRGWI | not soluble
MSDMTDMLEDEMIDPVTGEIIDQKDLAERLLAQAKEQGVSLVGPGGLLNQLTKNVLETALNAELTEYLGHEHGETPLGSNMRNGPRTKTVLTVESGRFRSRSRGTVTGRSSR | not soluble
MSLRASDDKALQYAIAEITEIATGFGLDFYPMRYEICPAEIIYTFGAYGMPTRFSHWSFGKQFFRMKLQYDLGLSKIYELVINSDPCYAFLLDTNSLIQNKLIVAHVLAHCDFFKNNIRFSNTKRDMVESMSATAERVKAYEHKYGKEEVETFLDAVLAIQEHIDPSLMRPKLAWSIDDLEEEEVEKKKASQYDDLWNLDNRNKKQERSNVRKKKKIPPQPEKDLLLFIEEYSRELEDWQRDILTMMREEMLYFWPQLETKIMNEGWASFWHQRILREMDLTSDEAIEFAKLNAGVVQPSKTSINPYYLGIKMFEDIEERYNNPTEEMKRRGVKPGSGRDKIFEVREIEWDVSFLRNYLNKDLVMREDMYLFQRQGKEYKVIDKEWEHVRDQLVNMRTNGGFPYLVVEDGDYLKNGELYIKHSYEGIELDLKYLEKVLPYLHQLWGRTVHMESIVESKGVVFSYDGKMVHRKYVEGHHHHHH | not soluble
PEPAQQQAPVEKPKKKAKLEVIGDDVVSIMVSLRWLEFLLDNYGPENTLDVLDYYESLGWISATVKEQMMKYAKMTGVMNPAQEYKIKPSIQDHIINMLFIEKLRGEEINRDLIEALEREFRTIRKGVDELYGI | not soluble
MIKNILILSSNNTGHGHKSITESLLEQFSHYPDVNVHVIDGFTLAGNFGLRIGKLYGSVTRNAKELWKLVWELSLKKPSLLNDFTEVAIKDNFLKLICNIKPDLILSVHPNFNGSVLNILEDYNIKVPFVTLLADIVSITPLWADPRADYIICPSKESKFKCLEFGVSESKLIETGFPVRQKFLKHLEKNGENNTQNIKKYTGDRPLECLIMSGGEGSGNMSRIASILLKNFNCRVKIVTGRNRLLKRRLERTIGERFGDRVEIYGFTENIQDLMLSSDIAFTRGSPNVMMEAVACNVPLIITGNLPGQEEGNPAYMQKYNLGVVCKDVRKLRHTVNELLENNGEKLNRIKQSQKEFLNPNVAKEIVSFLLSIDKQEEPCFPEDLFSGDFPRFWELHKRISMSHNKKIILKRHKKIGTKQK | soluble
